Test results as given in publication PMC4495402 (Genes & Development, 2015).

B1: yeast ySpt2C(259–333) (domain or fragment)
chain: PGYDRDEIWAMFNRGKKRSEYDYDELEDDDMEANEMEILEEEEMARKMARLEDKREEAWLKKHEEEKRRRKKGIR

Target: Xenopus histone H3/H4 tetramer (Xenopus, UniProt P84233 21-136; P62799 17-103)
Test: ITC

Row | Binder | Kd [µM] | dH [kcal/mol]
1 | ALRYMESSWKEQQKEEAKSLRLGMQEDLEEMRREEEEMQRRRAKKLKRR (domain or fragment) [hSpt2C (637–685) composed of only αC2] | 2.3 | -38.9
2 | EPQEEISKHIREIFGYDRKKYKDESDYALRYMESS (domain or fragment) [hSpt2C (610–644) composed of only αC1] | 55.6 | -9.2
3 | B1 | – | -19.2
